B1: Serine/threonine-protein kinase SIK3 (Homo sapiens), Q9Y2K2 (parent)
chain: MAAAAASGAGGAAGAGTGGAGPAGRLLPPPAPGSPAAPAAVSPAAGQPRPPAPASRGPMPARIGYYEIDRTIGKGNFAVVKRATHLVTKAKVAIKIIDKTQLDEENLKKIFREVQIMKMLCHPHIIRLYQVMETERMIYLVTEYASGGEIFDHLVAHGRMAEKEARRKFKQIVTAVYFCHCRNIVHRDLKAENLLLDANLNIKIADFGFSNLFTPGQLLKTWCGSPPYAAPELFEGKEYDGPKVDIWSLGVVLYVLVCGALPFDGSTLQNLRARVLSGKFRIPFFMSTECEHLIRHMLVLDPNKRLSMEQICKHKWMKLGDADPNFDRLIAECQQLKEERQVDPLNEDVLLAMEDMGLDKEQTLQSLRSDAYDHYSAIYSLLCDRHKRHKTLRLGALPSMPRALAFQAPVNIQAEQAGTAMNISVPQVQLINPENQIVEPDGTLNLDSDEGEEPSPEALVRYLSMRRHTVGVADPRTEVMEDLQKLLPGFPGVNPQAPFLQVAPNVNFMHNLLPMQNLQPTGQLEYKEQSLLQPPTLQLLNGMGPLGRRASDGGANIQLHAQQLLKRPRGPSPLVTMTPAVPAVTPVDEESSDGEPDQEAVQSSTYKDSNTLHLPTERFSPVRRFSDGAASIQAFKAHLEKMGNNSSIKQLQQECEQLQKMYGGQIDERTLEKTQQQHMLYQQEQHHQILQQQIQDSICPPQPSPPLQAACENQPALLTHQLQRLRIQPSSPPPNHPNNHLFRQPSNSPPPMSSAMIQPHGAASSSQFQGLPSRSAIFQQQPENCSSPPNVALTCLGMQQPAQSQQVTIQVQEPVDMLSNMPGTAAGSSGRGISISPSAGQMQMQHRTNLMATLSYGHRPLSKQLSADSAEAHSLNVNRFSPANYDQAHLHPHLFSDQSRGSPSSYSPSTGVGFSPTQALKVPPLDQFPTFPPSAHQQPPHYTTSALQQALLSPTPPDYTRHQQVPHILQGLLSPRHSLTGHSDIRLPPTEFAQLIKRQQQQRQQQQQQQQQQEYQELFRHMNQGDAGSLAPSLGGQSMTERQALSYQNADSYHHHTSPQHLLQIRAQECVSQASSPTPPHGYAHQPALMHSESMEEDCSCEGAKDGFQDSKSSSTLTKGCHDSPLLLSTGGPGDPESLLGTVSHAQELGIHPYGHQPTAAFSKNKVPSREPVIGNCMDRSSPGQAVELPDHNGLGYPARPSVHEHHRPRALQRHHTIQNSDDAYVQLDNLPGMSLVAGKALSSARMSDAVLSQSSLMGSQQFQDGENEECGASLGGHEHPDLSDGSQHLNSSCYPSTCITDILLSYKHPEVSFSMEQAGV
B2: Serine/threonine-protein kinase SIK1 (Homo sapiens), P57059 (parent)
chain: MVIMSEFSADPAGQGQGQQKPLRVGFYDIERTLGKGNFAVVKLARHRVTKTQVAIKIIDKTRLDSSNLEKIYREVQLMKLLNHPHIIKLYQVMETKDMLYIVTEFAKNGEMFDYLTSNGHLSENEARKKFWQILSAVEYCHDHHIVHRDLKTENLLLDGNMDIKLADFGFGNFYKSGEPLSTWCGSPPYAAPEVFEGKEYEGPQLDIWSLGVVLYVLVCGSLPFDGPNLPTLRQRVLEGRFRIPFFMSQDCESLIRRMLVVDPARRITIAQIRQHRWMRAEPCLPGPACPAFSAHSYTSNLGDYDEQALGIMQTLGVDRQRTVESLQNSSYNHFAAIYYLLLERLKEYRNAQCARPGPARQPRPRSSDLSGLEVPQEGLSTDPFRPALLCPQPQTLVQSVLQAEMDCELQSSLQWPLFFPVDASCSGVFRPRPVSPSSLLDTAISEEARQGPGLEEEQDTQESLPSSTGRRHTLAEVSTRLSPLTAPCIVVSPSTTASPAEGTSSDSCLTFSASKSPAGLSGTPATQGLLGACSPVRLASPFLGSQSATPVLQAQGGLGGAVLLPVSFQEGRRASDTSLTQGLKAFRQQLRKTTRTKGFLGLNKIKGLARQVCQAPASRASRGGLSPFHAPAQSPGLHGGAAGSREGWSLLEEVLEQQRLLQLQHHPAAAPGCSQAPQPAPAPFVIAPCDGPGAAPLPSTLLTSGLPLLPPPLLQTGASPVASAAQLLDTHLHIGTGPTALPAVPPPRLARLAPGCEPLGLLQGDCEMEDLMPCSLGTFVLVQ

Variants of: B1
Details: with 1433z_human YWHAZ
With T221A the “effect of a mutation on the interaction” value was “decreasing interaction”.

Variants of: B2
Details: with 1433z_human YWHAZ
T182A was tested, and the “effect of a mutation on the interaction” value was “decreasing interaction”.
